The values below come from patent publication US20220339270A1 (published 2022).

The chains are these.
B1: anti-tau antibody MC1 expressed from viral genome construct MC1HIRESL (TAU_ITR75; SEQ ID NO: 2064) (antibody, mouse IgG1, kappa, V domains shown)
VH: QVQLQQSGAELMKPGASVKISCKATGYTFSNYWIEWVKQRPGHGLEWIGEILPGSDSIKYNENFKGKATFTADTSSNTAYMQLSSLTSEDSAVYYCARRGNYPDYWGQGTTLTVSS
VL: DVVMTQTPLSLPVSLGDQASISCRSSQSLVHSNGNTYLHWYLQKPGQSPKLLIYKVSNRFSGVPDRFSGSGSGTDFTLKISRVEAEDLGVYFCSQSTHVPLTFGAGTKLELKR
B2: anti-tau antibody MC1 expressed from viral genome construct MC1LF2AH (TAU_ITR79; SEQ ID NO: 2068) (antibody, V domains shown)
VH: B1 VH
VL: B1 VL
B3: anti-tau antibody MC1 expressed from viral genome construct MC1LIRESH (TAU_ITR80; SEQ ID NO: 2069) (antibody, mouse IgG1, kappa, V domains shown)
VH: B1 VH
VL: B1 VL
B4: IPN002 scFv-HA expressed from TAU_ITR153 (CAG, LH, (G4S)4) (scFv)
scFv: DVLMTQTPLSLPVSLGDQASISCKSSQSIVHSNGNTYLEWYLQKPGQSPKLLVYKVSNRFSGVPDRFSGSGSGTDFTLKISRVEAEDLGTYYCFQGSLVPWAFGGGTKLEIKGGGGSGGGGSGGGGSGGGGSEVHLVESGGALVKPGGSLKLSCAASGFSFSKYGMSWVRQTPDKRLEWVATISSSGSRTYYPDSVKGQFTISRDNAKNTLYLQMSSLKSEDTAMYYCSISWDGAMDYWGQGTSVTVSS
notes: also called CAG-IPN006-LH-G4S4
B5: IPN002 scFv-HA expressed from TAU_ITR151 (CAG, LH, (G4S)2) (scFv)
scFv: DVLMTQTPLSLPVSLGDQASISCKSSQSIVHSNGNTYLEWYLQKPGQSPKLLVYKVSNRFSGVPDRFSGSGSGTDFTLKISRVEAEDLGTYYCFQGSLVPWAFGGGTKLEIKGGGGSGGGGSEVHLVESGGALVKPGGSLKLSCAASGFSFSKYGMSWVRQTPDKRLEWVATISSSGSRTYYPDSVKGQFTISRDNAKNTLYLQMSSLKSEDTAMYYCSISWDGAMDYWGQGTSVTVSS
notes: also called CAG-IPN004-LH-G4S2
B6: IPN002 scFv-HA expressed from TAU_ITR155 (CAG, LH, (G4S)6) (scFv)
scFv: DVLMTQTPLSLPVSLGDQASISCKSSQSIVHSNGNTYLEWYLQKPGQSPKLLVYKVSNRFSGVPDRFSGSGSGTDFTLKISRVEAEDLGTYYCFQGSLVPWAFGGGTKLEIKGGGGSGGGGSGGGGSGGGGSGGGGSGGGGSEVHLVESGGALVKPGGSLKLSCAASGFSFSKYGMSWVRQTPDKRLEWVATISSSGSRTYYPDSVKGQFTISRDNAKNTLYLQMSSLKSEDTAMYYCSISWDGAMDYWGQGTSVTVSS
notes: also called CAG-IPN0014-LH-G4S6
B7: IPN002 scFv-HA expressed from TAU_ITR142 (CAG, HL, (G4S)6) (scFv)
scFv: EVHLVESGGALVKPGGSLKLSCAASGFSFSKYGMSWVRQTPDKRLEWVATISSSGSRTYYPDSVKGQFTISRDNAKNTLYLQMSSLKSEDTAMYYCSISWDGAMDYWGQGTSVTVSSGGGGSGGGGSGGGGSGGGGSGGGGSGGGGSDVLMTQTPLSLPVSLGDQASISCKSSQSIVHSNGNTYLEWYLQKPGQSPKLLVYKVSNRFSGVPDRFSGSGSGTDFTLKISRVEAEDLGTYYCFQGSLVPWAFGGGTKLEIK
notes: also called CAG-IPN0011-HL-G4S6
B8: IPN002 scFv-HA expressed from TAU_ITR152 (CAG, LH, (G4S)3) (scFv)
scFv: DVLMTQTPLSLPVSLGDQASISCKSSQSIVHSNGNTYLEWYLQKPGQSPKLLVYKVSNRFSGVPDRFSGSGSGTDFTLKISRVEAEDLGTYYCFQGSLVPWAFGGGTKLEIKGGGGSGGGGSGGGGSEVHLVESGGALVKPGGSLKLSCAASGFSFSKYGMSWVRQTPDKRLEWVATISSSGSRTYYPDSVKGQFTISRDNAKNTLYLQMSSLKSEDTAMYYCSISWDGAMDYWGQGTSVTVSS
notes: also called CAG-IPN005-LH-G4S3; L(G4S)3H
B9: IPN002 F(ab')2_hIgG3_3hinge expressed from TAU_ITR122 (CBA, hGbin, HF.T2AL) (F(ab')2)
VH: EVHLVESGGALVKPGGSLKLSCAASGFSFSKYGMSWVRQTPDKRLEWVATISSSGSRTYYPDSVKGQFTISRDNAKNTLYLQMSSLKSEDTAMYYCSISWDGAMDYWGQGTSVTVSS
VL: DVLMTQTPLSLPVSLGDQASISCKSSQSIVHSNGNTYLEWYLQKPGQSPKLLVYKVSNRFSGVPDRFSGSGSGTDFTLKISRVEAEDLGTYYCFQGSLVPWAFGGGTKLEIK
B10: IPN002 scFv-HA expressed from TAU_ITR141 (CAG, HL, (G4S)5) (scFv)
scFv: EVHLVESGGALVKPGGSLKLSCAASGFSFSKYGMSWVRQTPDKRLEWVATISSSGSRTYYPDSVKGQFTISRDNAKNTLYLQMSSLKSEDTAMYYCSISWDGAMDYWGQGTSVTVSSGGGGSGGGGSGGGGSGGGGSGGGGSDVLMTQTPLSLPVSLGDQASISCKSSQSIVHSNGNTYLEWYLQKPGQSPKLLVYKVSNRFSGVPDRFSGSGSGTDFTLKISRVEAEDLGTYYCFQGSLVPWAFGGGTKLEIK
notes: also called CAG-IPN0010-HL-G4S5
B11: IPN002 scFv-HA expressed from TAU_ITR137 (CAG, HL, G4S) (scFv)
scFv: EVHLVESGGALVKPGGSLKLSCAASGFSFSKYGMSWVRQTPDKRLEWVATISSSGSRTYYPDSVKGQFTISRDNAKNTLYLQMSSLKSEDTAMYYCSISWDGAMDYWGQGTSVTVSSGGGGSDVLMTQTPLSLPVSLGDQASISCKSSQSIVHSNGNTYLEWYLQKPGQSPKLLVYKVSNRFSGVPDRFSGSGSGTDFTLKISRVEAEDLGTYYCFQGSLVPWAFGGGTKLEIK
notes: also called CAG-IPN002-HL-G4S; H(G4S)L
B12: IPN002 scFv-HA expressed from TAU_ITR139 (CAG, HL, (G4S)3) (scFv)
scFv: EVHLVESGGALVKPGGSLKLSCAASGFSFSKYGMSWVRQTPDKRLEWVATISSSGSRTYYPDSVKGQFTISRDNAKNTLYLQMSSLKSEDTAMYYCSISWDGAMDYWGQGTSVTVSSGGGGSGGGGSGGGGSDVLMTQTPLSLPVSLGDQASISCKSSQSIVHSNGNTYLEWYLQKPGQSPKLLVYKVSNRFSGVPDRFSGSGSGTDFTLKISRVEAEDLGTYYCFQGSLVPWAFGGGTKLEIK
notes: also called CAG-IPN003-HL-G4S3; H(G4S)3L
B13: IPN002 scFv-HA expressed from TAU_ITR143 (CAG, HL, (G4S)8) (scFv)
scFv: EVHLVESGGALVKPGGSLKLSCAASGFSFSKYGMSWVRQTPDKRLEWVATISSSGSRTYYPDSVKGQFTISRDNAKNTLYLQMSSLKSEDTAMYYCSISWDGAMDYWGQGTSVTVSSGGGGSGGGGSGGGGSGGGGSGGGGSGGGGSGGGGSGGGGSDVLMTQTPLSLPVSLGDQASISCKSSQSIVHSNGNTYLEWYLQKPGQSPKLLVYKVSNRFSGVPDRFSGSGSGTDFTLKISRVEAEDLGTYYCFQGSLVPWAFGGGTKLEIK
notes: also called CAG-IPN0012-HL-G4S8
B14: IPN002 scFv-HA expressed from TAU_ITR140 (CAG, HL, (G4S)4) (scFv)
scFv: EVHLVESGGALVKPGGSLKLSCAASGFSFSKYGMSWVRQTPDKRLEWVATISSSGSRTYYPDSVKGQFTISRDNAKNTLYLQMSSLKSEDTAMYYCSISWDGAMDYWGQGTSVTVSSGGGGSGGGGSGGGGSGGGGSDVLMTQTPLSLPVSLGDQASISCKSSQSIVHSNGNTYLEWYLQKPGQSPKLLVYKVSNRFSGVPDRFSGSGSGTDFTLKISRVEAEDLGTYYCFQGSLVPWAFGGGTKLEIK
notes: also called CAG-IPN008-HL-G4S4
B15: IPN002 scFv-HA expressed from TAU_ITR154 (CAG, LH, (G4S)5) (scFv)
scFv: DVLMTQTPLSLPVSLGDQASISCKSSQSIVHSNGNTYLEWYLQKPGQSPKLLVYKVSNRFSGVPDRFSGSGSGTDFTLKISRVEAEDLGTYYCFQGSLVPWAFGGGTKLEIKGGGGSGGGGSGGGGSGGGGSGGGGSEVHLVESGGALVKPGGSLKLSCAASGFSFSKYGMSWVRQTPDKRLEWVATISSSGSRTYYPDSVKGQFTISRDNAKNTLYLQMSSLKSEDTAMYYCSISWDGAMDYWGQGTSVTVSS
notes: also called CAG-IPN007-LH-G4S5
B16: IPN002 scFv-HA expressed from TAU_ITR150 (CAG, LH, G4S) (scFv)
scFv: DVLMTQTPLSLPVSLGDQASISCKSSQSIVHSNGNTYLEWYLQKPGQSPKLLVYKVSNRFSGVPDRFSGSGSGTDFTLKISRVEAEDLGTYYCFQGSLVPWAFGGGTKLEIKGGGGSEVHLVESGGALVKPGGSLKLSCAASGFSFSKYGMSWVRQTPDKRLEWVATISSSGSRTYYPDSVKGQFTISRDNAKNTLYLQMSSLKSEDTAMYYCSISWDGAMDYWGQGTSVTVSS
notes: also called CAG-IPN004-LH-G4S; L(G4S)H

T1 sequence (P10636 other isoform, or with tags, fused parts or gaps limits assumed): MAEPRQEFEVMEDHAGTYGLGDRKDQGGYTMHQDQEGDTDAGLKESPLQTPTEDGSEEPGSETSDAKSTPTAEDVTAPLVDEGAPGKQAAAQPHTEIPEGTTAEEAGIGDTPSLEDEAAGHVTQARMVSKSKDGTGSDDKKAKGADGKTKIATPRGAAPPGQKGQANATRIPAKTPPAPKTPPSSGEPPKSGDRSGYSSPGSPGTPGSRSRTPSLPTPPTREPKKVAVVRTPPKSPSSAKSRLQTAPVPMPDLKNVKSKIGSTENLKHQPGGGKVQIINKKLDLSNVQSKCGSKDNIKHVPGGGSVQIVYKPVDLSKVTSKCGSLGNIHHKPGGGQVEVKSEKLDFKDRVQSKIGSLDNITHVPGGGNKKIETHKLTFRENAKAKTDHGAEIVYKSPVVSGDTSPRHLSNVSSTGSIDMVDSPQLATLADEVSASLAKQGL
T2 sequence (P10636 other isoform, or with tags, fused parts or gaps limits assumed): as above

One assay addresses T1, extracellular tau in the form of paired helical filaments (ePHF tau) (UniProt P10636-8 1-441, limits assumed).
T1 construct: Aggregated, hyperphosphorylated tau preparation; not a single defined polypeptide
In words: ePHF tau ELISA, ePHF coated; antibody at 55.6 ng/ml; anti-mouse-HRP. On the technique in general: In an ELISA, binding on a coated surface is turned into a signal by an enzyme label.
B1 gave an OD450 of 0.2 OD450.
Same read-out and setting: to B2 belongs 0.4 OD450; to B3, 0.3 OD450.

In a further assay the target is T1, extracellular tau in the form of paired …. In words: ePHF tau ELISA, ePHF coated; antibody at 0.7 ng/ml; anti-mouse-HRP.
In turn, B1 had an OD450 of 0.1 OD450.
The same measure, in the same setting: to B2 belongs 0.1 OD450; to B3, 0.1 OD450.

The target is the same in the next assay. Description: ePHF tau ELISA, ePHF coated; antibody at 166.7 ng/ml; anti-mouse-HRP.
B1: the OD450 stood at 0.3 OD450.
Same read-out and setting: to B2 belongs 0.7 OD450; to B3, 0.6 OD450.

The target is the same in the next assay. In words: ePHF tau ELISA, ePHF coated; antibody at 1000.0 ng/ml; anti-mouse-HRP.
In turn, B1 showed an OD450 of 1 OD450.
With B2, the OD450 is 1.1 OD450.
Same read-out and setting: to B3 belongs 1 OD450.

A further assay shares this target. Description: ePHF tau ELISA, ePHF coated; antibody at 6.2 ng/ml; anti-mouse-HRP.
Consider B1, for which the OD450 is 0.1 OD450.
Still for that read-out and setting: for B2 the value was 0.1 OD450; for B3, 0.1 OD450.

Another assay has as its target T2, wild-type tau (441 amino acids; tau441; NP_005901.2) (human, UniProt P10636 1-758).
T2 construct: Unphosphorylated recombinant tau441 used in the wild-type tau ELISA; also called wt tau441; wtTau
In words: wild-type tau ELISA, 293 cell supernatant.
For the molecule B4, the binding result is “binds”.
On the same count and under the same terms, to B5 belongs “binds”; to B6, “binds”; to B7, “binds”.
On the same count and under the same terms, to B8 belongs “binds”.
The same measure, in the same setting: for B9 the value was “binds”; for B10, “binds”; for B11, “binds”.
With B12, the binding result is recorded as “binds”.
The same measure, in the same setting: to B13 belongs “binds”; to B14, “binds”.
On the same count and under the same terms, to B15 belongs “binds”.
As for B16, the binding result is “binds”.

Another assay concerns the target T1, extracellular tau in the form of paired …. In words: ePHF tau ELISA, ePHF coated; antibody at 2.1 ng/ml; anti-mouse-HRP.
In the case of B1, the OD450 is 0.1 OD450.
Still for that read-out and setting: for B2 the value was 0.1 OD450; for B3, 0.1 OD450.

Another assay shares this target. Description: ePHF tau ELISA, ePHF coated; antibody at 500.0 ng/ml; anti-mouse-HRP.
Regarding B1, the OD450 is 0.7 OD450.
Still for that read-out and setting: for B2 the value was 1 OD450; for B3, 0.9 OD450.

A further assay has the same target. Description: ePHF tau ELISA, ePHF coated; antibody at 18.5 ng/ml; anti-mouse-HRP.
Molecule B1 yielded an OD450 of 0.1 OD450.
Still for that read-out and setting: to B2 belongs 0.2 OD450.
For the molecule B3, the OD450 was determined as 0.2 OD450.
